According to US20240116985A1, “STAPLED PEPTIDES AND METHODS THEREOF” (priority 2020, published 2024):
Starred links: 1 amine or outer side, 2 acyl side, 3 side chain; linkers in the order of their positions; H or OH if unused. Positions of bridges follow the written chain, without caps; N, C: chain ends. Non-standard residues stand in square brackets, D forms with d. Primed or numbered codes have the meaning given here. PyrS2″ = (S)-3-amino-1-((pent-4-en-1-yloxy)carbonyl)pyrrolidine-3-carboxylic acid (stapling residue), C=CCCCOC(=O)N1CC[C@@](N[*:1])(C(=O)[*:2])C1; B5(4) = 2,2-bis(4-pentenyl)glycine = 2-amino-2-(pent-4-en-1-yl)hept-6-enoic acid (stitching residue), C=CCCCC(CCCC=C)(N[*:1])C(=O)[*:2]; B5(5) = 2,2-bis(4-pentenyl)glycine, 2-amino-2-(pent-4-en-1-yl)hept-6-enoic acid (stitching residue), C=CCCCC(CCCC=C)(N[*:1])C(=O)[*:2]; PyrS2 = (S)-3-amino-1-((pent-4-en-1-yloxy)carbonyl)pyrrolidine-3-carboxylic acid, C=CCCCOC(=O)N1CC[C@@](N[*:1])(C(=O)[*:2])C1; B5(19) = 2-amino-2-(pent-4-en-1-yl)hept-6-enoic acid (bis(4-pentenyl)glycine), C=CCCCC(CCCC=C)(N[*:1])C(=O)[*:2]; B5(25) = 2-amino-2-(pent-4-en-1-yl)hept-6-enoic acid (stitching residue), C=CCCCC(CCCC=C)(N[*:1])C(=O)[*:2]; B5(3) = 2,2-bis(4-pentenyl)glycine (stitching residue), C=CCCCC(CCCC=C)(N[*:1])C(=O)[*:2]; B5 = 2-amino-2-(pent-4-en-1-yl)hept-6-enoic acid, C=CCCCC(CCCC=C)(N[*:1])C(=O)[*:2]; PyrR = (R)-1-((allyloxy)carbonyl)-3-aminopyrrolidine-3-carboxylic acid; RbGlu = 3-aminopentanedioic acid, R/S prefix not explained; SbGlu = 3-aminopentanedioic acid, R/S prefix not explained; Phe(3-COOH) = N[C@@H](Cc1cccc(C(=O)O)c1)C(=O)O; Trp(5-F) = N[C@@H](Cc1c[nH]c2ccc(F)cc12)C(=O)O; Phe(2-CF3) = N[C@@H](Cc1ccccc1C(F)(F)F)C(=O)O; Trp(1-Me) = Cn1cc(C[C@H](N)C(=O)O)c2ccccc21; Phe(2-Cl) = N[C@@H](Cc1ccccc1Cl)C(=O)O; dαMeGly(allyl) = C=CC[C@@](C)(N)C(=O)O; 1Nal = N[C@@H](Cc1cccc2ccccc12)C(=O)O; Bta = N[C@@H](Cc1csc2ccccc12)C(=O)O; αAllylPro = C=CC[C@@]1(C(=O)O)CCCN1; tBuAla = CC(C)(C)C[C@H](N)C(=O)O; 3Thi = N[C@@H](Cc1ccsc1)C(=O)O; Cha = N[C@@H](CC1CCCCC1)C(=O)O; S8 = C=CCCCCCC[C@](C)(N)C(=O)O; Thr(ol) = C[C@@H](O)[C@H](N)CO; Phe(ol) = N[C@H](CO)Cc1ccccc1; R5 = C=CCCC[C@@](C)(N)C(=O)O; Nle = CCCC[C@H](N)C(=O)O

B1: I-1082 (peptide)
peptide: Ac-[αAllylPro]D[tBuAla][B5(4)]DDAAFN[PyrS2″][Phe(2-Cl)][Bta][Thr(ol)]
modifications: staple 1-4, 4-11
B2: I-1097 (peptide)
peptide: Ac-[αAllylPro]D[tBuAla][B5(5)]DDAAFL[S8][Phe(2-Cl)][Bta][dT]-NH2
modifications: staple 1-4, 4-11
B3: I-1087 (peptide)
peptide: Ac-[αAllylPro]D[tBuAla][B5(4)]DDAAFT[S8][Phe(2-Cl)][Bta]Q-NH2
modifications: staple 1-4, 4-11; also: later-eluting HPLC peak staple isomer composition
B4: I-799 (peptide)
peptide: Ac-[αAllylPro]D[tBuAla][B5]DDAAFN[PyrS2][3Thi][Trp(1-Me)]H-NH2
modifications: staple 1-4, 4-11
B5: I-800 (peptide)
peptide: Ac-[αAllylPro]D[tBuAla][B5]DDAAFN[PyrS2][3Thi][Trp(5-F)]H-NH2
modifications: staple 1-4, 4-11
B6: I-785 (peptide)
peptide: Ac-[αAllylPro]D[tBuAla][B5(5)]DDAAFN[PyrS2][3Thi][Bta]-NH2
modifications: staple 1-4, 4-11
B7: I-789 (peptide)
peptide: Ac-[αAllylPro]D[tBuAla][B5(5)]DDAAFN[PyrS2][3Thi][1Nal]H-NH2
modifications: staple 1-4, 4-11
B8: I-1106 (peptide)
peptide: Ac-[αAllylPro]D[tBuAla][B5(5)]DDAAFS[PyrS2″][Cha][Bta]S-NH2
modifications: staple 1-4, 4-11
B9: I-1083 (peptide)
peptide: Ac-[αAllylPro]D[tBuAla][B5(4)]DDAAFN[PyrS2″][Phe(2-Cl)][Bta][Phe(ol)]
modifications: staple 1-4, 4-11
B10: I-1099 (peptide)
peptide: Ac-[αAllylPro]D[tBuAla][B5(5)]DDAAFS[PyrS2″]F[Bta]S-NH2
modifications: staple 1-4, 4-11
B11: I-1105 (peptide)
peptide: Ac-[αAllylPro]D[tBuAla][B5(5)]DDAA[Cha]S[PyrS2″]F[Bta]S-NH2
modifications: staple 1-4, 4-11
B12: I-1307 (peptide)
peptide: Ac-[αAllylPro]D[Cha][B5(4)]DDAAFL[PyrS2″][Phe(2-Cl)][Bta][Thr(ol)]
modifications: staple 1-4, 4-11
B13: I-1309 (peptide)
peptide: Ac-[αAllylPro]D[tBuAla][B5(4)]DTAAFT[PyrS2″][Phe(2-Cl)][Bta][Thr(ol)]
modifications: staple 1-4, 4-11
B14: I-1310 (peptide)
peptide: Ac-[αAllylPro]D[Cha][B5(4)]DTAAFT[PyrS2″][Phe(2-Cl)][Bta][Thr(ol)]
modifications: staple 1-4, 4-11
B15: I-1311 (peptide)
peptide: Ac-[αAllylPro]D[tBuAla][B5(4)]DDAAFF[PyrS2″][Phe(2-Cl)][Bta][Thr(ol)]
modifications: staple 1-4, 4-11
B16: I-2568 (peptide)
peptide: Ac-[PyrR]AD[tBuAla][B5(25)]D[Phe(3-COOH)]AAFL[PyrS2″][Phe(2-CF3)][Bta]Q-NH2
modifications: staple 1-5, 5-12 (inferred); not fully specified; printed as Ac-PyrR-Ala-Asp-Npg-B5-Asp-3COOHF-Ala-Ala-Phe-Leu-PyrS2-2F3MeF-BztA-Gln-NH2
B17: I-2572 (peptide)
peptide: Ac-P[dαMeGly(allyl)]D[tBuAla][B5(4)]D[Phe(3-COOH)]AAFL[PyrS2″][Phe(2-CF3)][Bta]Q-NH2
modifications: staple 5-12, 2-5; also: -CH=CH- in each staple reduced to -CH2-CH2-
B18: I-2573 (peptide)
peptide: Ac-P[R5]D[tBuAla][B5(25)]D[Phe(3-COOH)]AAFL[PyrS2″][Phe(2-CF3)][Bta]Q-NH2
modifications: staple 5-12, 2-5; also: staple -CH=CH- reduced to -CH2-CH2-
B19: I-2569 (peptide)
peptide: Ac-[PyrR]ED[tBuAla][B5(25)]D[Phe(3-COOH)]AAFL[PyrS2″][Phe(2-CF3)][Bta]Q-NH2
modifications: staple 1-5, 5-12 (inferred); not fully specified; printed as Ac-PyrR-Glu-Asp-Npg-B5-Asp-3COOHF-Ala-Ala-Phe-Leu-PyrS2-2F3MeF-BztA-Gln-NH2
B20: I-657 (peptide)
peptide: Ac-[αAllylPro]DI[B5(4)]DE[Nle]AFQ[S8]F[Bta]Q-NH2
modifications: staple 1-4, 4-11
B21: I-667 (peptide)
peptide: Ac-[αAllylPro]DI[B5(4)]DEA[Nle]FQ[S8]F[Bta]Q-NH2
modifications: staple 1-4, 4-11
B22: I-666 (peptide)
peptide: Ac-[αAllylPro]DI[B5(19)]DEA[Nle]FQ[S8]F[Bta]Q-NH2
modifications: staple 1-4, 4-11
B23: I-672 (peptide)
peptide: Ac-[αAllylPro][SbGlu]I[B5(4)]DEAAFQ[S8]F[Bta]Q-NH2
modifications: staple 1-4, 4-11
B24: I-656 (peptide)
peptide: Ac-[αAllylPro]DI[B5(4)]DE[Nle]AFQ[S8]F[Bta]Q-NH2
modifications: staple 1-4, 4-11
B25: I-675 (peptide)
peptide: Ac-[αAllylPro]DI[B5(4)][RbGlu]EAAFQ[S8]F[Bta]Q-NH2
modifications: staple 1-4, 4-11
B26: I-676 (peptide)
peptide: Ac-[αAllylPro]DI[B5(4)][SbGlu]EAAFQ[S8]F[Bta]Q-NH2
modifications: staple 1-4, 4-11

These binders were tested against full-length beta-Catenin (Uniprot ID P35222) (Homo sapiens (Human)) (UniProt P35222) (assay: cell-based or functional assay).
Target sequence in this assay (P35222 2-781 limits assumed): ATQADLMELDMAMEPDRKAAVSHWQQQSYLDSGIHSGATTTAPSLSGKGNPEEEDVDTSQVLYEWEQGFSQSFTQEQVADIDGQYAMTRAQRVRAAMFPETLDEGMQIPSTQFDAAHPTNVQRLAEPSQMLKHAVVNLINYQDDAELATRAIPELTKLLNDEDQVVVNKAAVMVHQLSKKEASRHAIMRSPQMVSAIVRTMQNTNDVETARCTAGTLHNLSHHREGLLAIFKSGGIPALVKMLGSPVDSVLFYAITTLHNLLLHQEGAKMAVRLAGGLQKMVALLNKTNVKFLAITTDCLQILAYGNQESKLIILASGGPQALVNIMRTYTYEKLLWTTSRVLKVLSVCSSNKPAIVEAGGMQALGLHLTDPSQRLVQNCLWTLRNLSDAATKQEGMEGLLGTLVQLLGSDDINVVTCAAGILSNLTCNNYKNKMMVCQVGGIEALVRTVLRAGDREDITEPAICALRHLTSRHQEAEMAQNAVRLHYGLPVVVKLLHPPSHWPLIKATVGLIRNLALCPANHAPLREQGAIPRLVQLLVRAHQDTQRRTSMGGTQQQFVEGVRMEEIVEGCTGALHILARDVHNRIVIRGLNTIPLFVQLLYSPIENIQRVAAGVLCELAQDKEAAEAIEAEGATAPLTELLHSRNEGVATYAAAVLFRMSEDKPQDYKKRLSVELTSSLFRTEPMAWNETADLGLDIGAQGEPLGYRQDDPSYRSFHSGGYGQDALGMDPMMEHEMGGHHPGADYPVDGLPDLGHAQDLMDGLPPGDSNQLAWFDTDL

Row | Binder | DLD1 reporter assay Abs IC50
1 | B1 | 4800 nM
2 | B2 | > 20000 nM
3 | B3 | > 20000 nM

These binders were tested against B-cat-Halo (beta-catenin HaloTag NanoBRET construct expressed in HEK293 cells) (UniProt P35222) (assay: NanoBRET in HEK293 cells, Bcat-Halo + TCF4-Luc, peptide at 10 uM).
B-cat-Halo (beta-catenin HaloTag NanoBRET construct expressed in HEK293 cells), sequence (P35222 whole entry): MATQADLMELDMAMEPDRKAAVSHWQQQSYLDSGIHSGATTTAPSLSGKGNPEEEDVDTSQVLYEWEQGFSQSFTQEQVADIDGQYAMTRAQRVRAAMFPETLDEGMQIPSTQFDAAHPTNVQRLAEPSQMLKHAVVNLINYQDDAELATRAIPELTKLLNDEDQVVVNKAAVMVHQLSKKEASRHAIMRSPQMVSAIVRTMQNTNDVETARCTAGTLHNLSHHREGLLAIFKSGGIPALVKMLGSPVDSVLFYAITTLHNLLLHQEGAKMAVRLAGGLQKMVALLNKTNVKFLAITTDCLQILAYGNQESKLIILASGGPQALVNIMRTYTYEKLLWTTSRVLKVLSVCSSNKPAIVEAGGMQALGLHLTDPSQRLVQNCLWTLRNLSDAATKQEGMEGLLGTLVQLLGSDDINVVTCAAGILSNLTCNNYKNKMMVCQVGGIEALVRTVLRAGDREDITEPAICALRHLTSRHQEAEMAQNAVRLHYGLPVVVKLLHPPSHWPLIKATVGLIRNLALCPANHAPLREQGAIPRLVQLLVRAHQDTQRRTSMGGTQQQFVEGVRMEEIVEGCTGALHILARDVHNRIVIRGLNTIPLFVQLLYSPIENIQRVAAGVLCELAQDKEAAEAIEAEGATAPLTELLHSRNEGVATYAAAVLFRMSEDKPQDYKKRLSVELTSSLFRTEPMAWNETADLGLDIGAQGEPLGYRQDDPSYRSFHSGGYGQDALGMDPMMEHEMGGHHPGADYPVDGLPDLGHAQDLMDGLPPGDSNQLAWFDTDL

Row | Binder | NanoBRET % inh @ 10 uM
4 | B4 | 0.9%
5 | B5 | 8.1%
6 | B6 | 31%
7 | B7 | 9.7%

The binders below were run against Bcat-Halo (UniProt P35222) (assay: NanoBRET Abs IC50 in HEK293 cells; Bcat-Halo with TCF4-Luc as competitor).
Bcat-Halo, sequence (P35222 whole entry): as above

Row | Binder | IC50
8 | B8 | > 20000 nM
9 | B9 | 18800 nM
10 | B10 | 9000 nM
11 | B1 | 14100 nM
12 | B2 | > 20000 nM
13 | B11 | > 20000 nM
14 | B3 | 9300 nM

Each binder was assayed against full-length beta-Catenin (Uniprot ID P35222) (Homo sapiens (Human)) (UniProt P35222) (assay: fluorescence polarization competition; full-length beta-catenin + 5FAM-TCF4 10-53 probe).
Target sequence in this assay (P35222 2-781 limits assumed): as the sequence (P35222 2-781 limits assumed) above

Row | Binder | IC50
15 | B12 | 21 nM
16 | B13 | 59 nM
17 | B14 | 124 nM
18 | B15 | 38 nM

These binders were tested against full-length beta-Catenin (Uniprot ID P35222) (Homo sapiens (Human)) (UniProt P35222) (assay: fluorescence polarization competition; competitor 5FAM-TCF4(10-53) on full-length beta-catenin).
Target sequence in this assay (P35222 whole entry, one chain of several): as the sequence (P35222 whole entry) above

Row | Binder | IC50
19 | B16 | 4770 nM
20 | B17 | 67 nM
21 | B18 | 234 nM
22 | B19 | 1950 nM

What follows are binders tested against full-length beta-Catenin (Uniprot ID P35222) (Homo sapiens (Human)) (UniProt P35222) (assay: fluorescence polarization competition; full-length beta-catenin, competitor 5FAM-TCF4(10-53) probe).

Row | Binder | IC50 | EC50
23 | B20 | 46 nM | 
24 | B21 | 585 nM | 
25 | B22 | 626 nM | 
26 | B23 | 5000 nM | 
27 | B12 |  | 21 nM
28 | B13 |  | 59 nM
29 | B14 |  | 124 nM
30 | B24 | 73 nM | 
31 | B25 | 4520 nM | 
32 | B15 |  | 38 nM
33 | B26 | 5000 nM | 

The binders below were run against full-length beta-Catenin (Uniprot ID P35222) (Homo sapiens (Human)) (UniProt P35222) (assay: fluorescence polarization competition; displacement of 5FAM-TCF4(10-53) from full-length beta-catenin).
Target sequence in this assay (P35222 whole entry, one chain of several): as the sequence (P35222 whole entry) above

Row | Binder | IC50
34 | B8 | 23 nM
35 | B10 | 9 nM
36 | B2 | 40 nM
37 | B11 | 36 nM

What follows are binders tested against full-length beta-Catenin (Uniprot ID P35222) (Homo sapiens (Human)) (UniProt P35222) (assay: fluorescence polarization competition; full-length beta-catenin + 5FAM-TCF4(10-53) probe as competitor).
Target sequence in this assay (P35222 2-781 limits assumed): as the sequence (P35222 2-781 limits assumed) above

Row | Binder | EC50
38 | B8 | 23 nM
39 | B9 | 8 nM
40 | B10 | 9 nM
41 | B1 | 5 nM
42 | B2 | 40 nM
43 | B11 | 36 nM
44 | B3 | 9 nM

Each binder was assayed against full-length beta-Catenin (Uniprot ID P35222) (Homo sapiens (Human)) (UniProt P35222) (assay: fluorescence polarization competition; peptide displaces 5FAM-TCF4(10-53) from full-length beta-catenin).
Target sequence in this assay (P35222 2-781 limits assumed): as above

Row | Binder | IC50
45 | B6 | 6 nM
46 | B7 | 19 nM

What follows are binders tested against full-length beta-Catenin (Uniprot ID P35222) (Homo sapiens (Human)) (UniProt P35222) (assay: fluorescence polarization competition, full-length beta-catenin with 5FAM-TCF4(10-53) probe as competitor).
Target sequence in this assay (P35222 2-781 limits assumed): as above

Row | Binder | EC50
47 | B20 | 46 nM
48 | B21 | 585 nM
49 | B22 | 626 nM
50 | B23 | 5000 nM
51 | B24 | 73 nM
52 | B25 | 4520 nM
53 | B26 | 5000 nM

The binders below were run against full-length beta-Catenin (Uniprot ID P35222) (Homo sapiens (Human)) (UniProt P35222) (assay: fluorescence polarization competition; 10 nM full-length beta-catenin with 10 nM 5FAM-TCF4(10-53) probe as competitor).
Target sequence in this assay (P35222 2-781 limits assumed): as above

Row | Binder | IC50
54 | B4 | 92 nM
55 | B5 | 79 nM

These binders were tested against full-length beta-Catenin (Uniprot ID P35222) (Homo sapiens (Human)) (UniProt P35222) (assay: fluorescence polarization competition; peptide titrated against 10 nM full-length beta-catenin + 10 nM 5FAM-TCF4(10-53)).

Row | Binder | IC50
56 | B9 | 8 nM
57 | B1 | 5 nM
58 | B3 | 9 nM

The binders below were run against full-length beta-Catenin (Uniprot ID P35222) (Homo sapiens (Human)) (UniProt P35222) (assay: fluorescence polarization competition: peptide titrated against 10 nM full-length beta-catenin + 10 nM 5FAM-TCF4(10-53) probe).

Row | Binder | EC50
59 | B4 | 92 nM
60 | B5 | 79 nM
61 | B6 | 6 nM
62 | B7 | 19 nM
